In PMC5065529, “Wnt Signalosome Assembly by DEP Domain Swapping of Dishevelled” (Molecular Cell, 2016):

B1: SNAP-FZD5 (Frizzled 5), wild type [human] / DEP_(414–507)-GFP, minimal DEP domain of DVL2 [human] (parent)
chain 1: GRGLSVHTDMASVTKAMAAPESGLEVRDRMWLKITIPNAFLGSDVVDWLYHHVEGFPERREARKYASGLLKAGLIRHTVNKITFSEQCYYVFGD
chain 2: ASKAPVCQEITVPMCRGIGYNLTHMPNQFNHDTQDEAGLEVHQFWPLVEIQCSPDLRFFLCSMYTPICLPDYHKPLPPCRSVCERAKAGCSPLMRQYGFAWPERMSCDRLPVLGRDAEVLCMDYNRSEATTAPPRPFPAKPTLPGPPGAPASGGECPAGGPFVCKCREPFVPILKESHPLYNKVRTGQVPNCAVPCYQPSFSADERTFATFWIGLWSVLCFISTSTTVATFLIDMERFRYPERPIIFLSACYLCVSLGFLVRLVVGHASVACSREHNHIHYETTGPALCTIVFLLVYFFGMASSIWWVILSLTWFLAAGMKWGNEAIAGYAQYFHLAAWLIPSVKSITALALSSVDGDPVAGICYVGNQNLNSLRGFVLGPLVLYLLVGTLFLLAGFVSLFRIRSVIKQGGTKTDKLEKLMIRIGIFTLLYTVPASIVVACYLYEQHYRESWEAALTCACPGHDTGQPRAKPEYWVLMLKYFMCLVVGITSGVWIWSGKTVESWRRFTSRCCCRPRRGHKSGGAMAAGDYPEASAALTGRTGPPGPAATYHKQVSLSHV

Variants of: B1
Experiment: FZD5-dependent PM recruitment of DEP-GFP (cell scoring)
Settings: with DEP_(414–507)-GFP, 100 cells scored in each case, parent: 52, read off a plot

In order of falling screen value:
1. chain 2 V406A  49 % of cells
2. chain 2 Y240A  8 % of cells
3. chain 2 W504A  3 % of cells

Same assay, conditions: with DEP_(414–507)-GFP, 100 cells scored in each case, parent: 88, read off a plot

In order of rising screen value:
1. chain 2 P241A  20 % of cells
2. chain 2 W494A  21 % of cells
3. chain 2 W504A  24 % of cells
4. chain 2 I327A  30 % of cells
5. chain 2 Y240A  32 % of cells
6. chain 2 A326T  41 % of cells
7. chain 2 L420A  41 % of cells
8. chain 2 V406A  86 % of cells
